Experimental data from paper PMC5573372, “Solvent Assisted Tuning of Morphology of a Peptide-Perylenediimide Conjugate: Helical Fibers to Nano-Rings and their Differential Semiconductivity” (Scientific Reports, 2017).

Assay: Solubility of P-1 in water and THF
Type: physicochemical
Details: method not described

**Q.** For `O=C(O)[C@H](Cc1ccccc1)NC(=O)[C@H](Cc1ccccc1)N1C(=O)c2ccc3c4ccc5c6c(ccc(c7ccc(c2c37)C1=O)c64)C(=O)N([C@@H](Cc1ccccc1)C(=O)N[C@@H](Cc1ccccc1)C(=O)O)C5=O` [P-1], which “solubility in THF” value (THF (good solvent)) is on record?
**A.** The value was ~ 0.1 mM.

**Q.** What about the solubility (water (poor solvent)) of the same molecule?
**A.** The solubility was under 0.1 µM.
